Experimental data as given in US20100105864A1, “PROPHYLACTIC OR THERAPEUTIC AGENT FOR DIARRHEA” (priority 2007, published 2010).
Starred links: 1 amine or outer side, 2 acyl side, 3 side chain; linkers in the order of their positions; H or OH if unused. Non-standard residues stand in square brackets, D forms with d. Residues, ends and D or L forms follow the SMILES beside them. Primed or numbered codes have the meaning given here. No end group written: not given here. *: point of attachment. GlyA = glycolic acid (-OCH2CO2H), esterified to the C-terminal carboxyl, O=C(O)CO*; GlyA″ = glycolic acid, ester to the C-terminal carboxyl, -OCH2CO2H, O=C(O)CO*; LacA″ = lactic acid residue, ester -OCH(CH3)CO2H at the C-terminus; Cys(S-allyl) = S-allylcysteine, C=CCSC[C@H](N[*:1])C(=O)[*:2]; Cys(S-Me) = S-methylcysteine, CSC[C@H](N[*:1])C(=O)[*:2]; γGlu = O=C(O)[C@H](CCC(=O)[*:2])N[*:1]; Tle = CC(C)(C)[C@H](N)C(=O)O; Orn = NCCC[C@H](N)C(=O)O; Abu = CC[C@H](N)C(=O)O; LacA = lactic acid

T1: human calcium receptor (human, UniProt P41180 20-1078)
T1 sequence (looked up): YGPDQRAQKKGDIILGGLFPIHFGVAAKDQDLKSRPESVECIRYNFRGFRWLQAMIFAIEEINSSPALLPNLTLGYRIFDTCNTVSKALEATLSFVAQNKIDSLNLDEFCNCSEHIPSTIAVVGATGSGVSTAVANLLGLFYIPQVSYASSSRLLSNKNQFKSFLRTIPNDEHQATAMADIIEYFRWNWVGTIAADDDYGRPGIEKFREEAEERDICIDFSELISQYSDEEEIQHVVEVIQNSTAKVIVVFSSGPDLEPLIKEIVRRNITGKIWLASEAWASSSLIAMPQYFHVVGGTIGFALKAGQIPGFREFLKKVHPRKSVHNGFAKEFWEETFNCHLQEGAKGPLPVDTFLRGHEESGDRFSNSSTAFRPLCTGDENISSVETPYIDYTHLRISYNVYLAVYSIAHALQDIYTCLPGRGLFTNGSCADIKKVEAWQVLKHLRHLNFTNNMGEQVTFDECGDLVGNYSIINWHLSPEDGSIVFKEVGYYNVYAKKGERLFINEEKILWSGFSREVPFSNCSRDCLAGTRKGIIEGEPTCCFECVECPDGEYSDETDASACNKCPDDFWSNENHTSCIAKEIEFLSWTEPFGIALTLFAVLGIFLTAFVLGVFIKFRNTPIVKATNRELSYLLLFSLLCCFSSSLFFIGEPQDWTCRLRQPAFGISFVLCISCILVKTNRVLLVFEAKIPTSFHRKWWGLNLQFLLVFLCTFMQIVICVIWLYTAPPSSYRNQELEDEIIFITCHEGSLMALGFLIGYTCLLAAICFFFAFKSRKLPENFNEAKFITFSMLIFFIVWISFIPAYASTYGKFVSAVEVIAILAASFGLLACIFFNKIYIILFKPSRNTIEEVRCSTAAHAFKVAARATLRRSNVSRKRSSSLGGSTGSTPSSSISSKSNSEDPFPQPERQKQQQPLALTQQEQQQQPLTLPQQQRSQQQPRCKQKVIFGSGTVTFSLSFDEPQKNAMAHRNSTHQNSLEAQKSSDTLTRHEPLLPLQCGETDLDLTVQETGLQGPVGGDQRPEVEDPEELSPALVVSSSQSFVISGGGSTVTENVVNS

T2: human calcium receptor (Homo sapiens, UniProt P41180)
T2 construct: expressed in transfected cells; host or cells: Xenopus laevis oocytes injected with cRNA
T2 sequence (P41180 20-1078): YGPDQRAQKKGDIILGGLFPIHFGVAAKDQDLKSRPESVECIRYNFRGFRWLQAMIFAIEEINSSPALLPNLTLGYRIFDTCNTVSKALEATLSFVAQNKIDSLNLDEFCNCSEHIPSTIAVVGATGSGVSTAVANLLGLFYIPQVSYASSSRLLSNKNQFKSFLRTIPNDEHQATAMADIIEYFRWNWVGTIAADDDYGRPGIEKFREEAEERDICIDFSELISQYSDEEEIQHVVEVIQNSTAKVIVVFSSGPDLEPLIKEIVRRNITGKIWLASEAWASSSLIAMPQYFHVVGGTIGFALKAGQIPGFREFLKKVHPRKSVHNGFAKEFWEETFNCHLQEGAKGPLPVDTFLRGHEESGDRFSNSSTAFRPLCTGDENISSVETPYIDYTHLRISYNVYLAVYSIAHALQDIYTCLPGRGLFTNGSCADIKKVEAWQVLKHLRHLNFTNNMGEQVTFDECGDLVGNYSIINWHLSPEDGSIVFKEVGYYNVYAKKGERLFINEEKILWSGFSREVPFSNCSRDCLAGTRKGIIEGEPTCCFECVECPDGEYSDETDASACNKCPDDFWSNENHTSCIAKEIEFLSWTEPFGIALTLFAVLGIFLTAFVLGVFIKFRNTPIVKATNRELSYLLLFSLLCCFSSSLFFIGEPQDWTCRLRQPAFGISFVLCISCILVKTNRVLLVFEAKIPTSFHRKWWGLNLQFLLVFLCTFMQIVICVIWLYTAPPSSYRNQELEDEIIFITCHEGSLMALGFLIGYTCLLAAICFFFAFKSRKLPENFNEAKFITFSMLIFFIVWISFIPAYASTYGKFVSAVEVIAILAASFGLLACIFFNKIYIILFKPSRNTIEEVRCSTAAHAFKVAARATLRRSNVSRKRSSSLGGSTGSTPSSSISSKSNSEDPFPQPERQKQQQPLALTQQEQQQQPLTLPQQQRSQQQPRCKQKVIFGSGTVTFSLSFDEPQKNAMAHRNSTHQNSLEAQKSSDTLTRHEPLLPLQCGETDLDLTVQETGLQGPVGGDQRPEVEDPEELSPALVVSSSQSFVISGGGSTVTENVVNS


These molecules were tested against T1, human calcium receptor (assay: cell-based or functional assay). Settings: not given.

Row | Molecule | EC50, calcium imaging (Calcium 3 assay kit, FLEXSTATION) in HEK 293 cells expressing human CaSR [nM]
1 | [γGlu]-Val-GlyA [γ-Glu-Val-GlyA] | 140
2 | [γGlu]-[Tle]-{GlyA″} [γ-Glu-t-Leu-GlyA] | 50
3 | [γGlu]-Val-LacA [γ-Glu-Val-LacA] | 57
4 | [γGlu]-[Tle]-{LacA″} [γ-Glu-t-Leu-LacA] | 38
5 | [γGlu]-[Abu]-{LacA″} [γ-Glu-Abu-LacA] | 102

Each molecule was assayed against T2, human calcium receptor (assay: Ca ion concentration-dependent Cl ionic current measurement in Xenopus laevis oocytes expressing the calcium receptor). Settings: D-amino acid added at 10 mM; oocytes clamped at -70 mV.
Type: cell-based
Method: For evaluation of the calcium receptor-activating action, a Ca ion concentration-dependent Cl ionic current measuring method using a Xenopus laevis oocyte expression system was used. If each activator is added to Xenopus laevis oocytes expressing the calcium receptor, intracellular Ca ions increase. Then, the Ca ion concentration-dependent Cl channel opens, and the intracellular current value changes as an ionic current. By measuring the change in the intracellular current value, whether the calcium receptor-activating action is present or not can be determined.
Specifically, the abdomen of Xenopus laevis was opened, and an egg batch was taken out and then treated with a 1% collagenase solution at 20° C. for 2 hours to obtain individual oocytes. Into the oocytes, 50 nl of 1 μg/μl receptor cRNA or 50 nl of sterilized water per oocyte were injected by using a micro glass capillary, and the oocytes were cultured at 18° C. for 2 to 3 days. For the culture, a solution obtained by adding 2 mM pyruvic acid, 10 U/ml penicillin, and 10 μg/ml streptomycin to the solution in Example 2 was used. After the culture, a test solution was added to the oocytes injected with cRNA or sterilized water. Electrophysiological measurement was performed by using an amplifier Geneclamp 500 (manufactured by Axon) and recording software AxoScope 9.0 (manufactured by Axon). The oocytes were membrane potential-clamped at −70 mV by the double electrode potential clamp method, and the intracellular current was measured via the Ca ion concentration-dependent Cl ion channel. The maximum value of the intracellular current was defined as the response current value. […]
The calcium receptor-activating action of L-amino acids was evaluated by using the method described in Example 13. That is, oocytes injected with cRNA of the calcium receptor or sterilized water were prepared, and membrane potential-clamped at −70 mV by the double electrode potential clamp method. To the potential-clamped oocytes, alanine (10 mM), arginine (10 mM), asparagine (10 mM), aspartic acid (10 mM), cysteine (10 mM), glutamine (10 mM), glutamic acid (10 mM), glycine (10 mM), histidine (10 mM), isoleucine (10 mM), leucine (10 mM), lysine (10 mM), methionine (10 mM), phenylalanine (10 mM), proline (10 mM), serine (10 mM), threonine (10 mM), tryptophan (10 mM), tyrosine (10 mM), valine (10 mM), ornithine (10 mM), taurine (10 mM), or hydroxyproline (10 mM) was added, and Ca ion concentration-dependent Cl response current was measured. […] As for the above-described amino acids, the activating action is reported in Proc. Natl. Acad. Sci. USA, Apr. 25, 2000, 97(9): 4814-9.
The calcium receptor-activating action of D-cysteine was evaluated by using the method described in Example 13. That is, oocytes injected with cRNA of the calcium receptor or sterilized water were prepared, and membrane potential-clamped at −70 mV by the double electrode potential clamp method. To the potential-clamped oocytes, D-cysteine (10 mM), L-cysteine (10 mM), D-tryptophan (10 mM), or L-tryptophan (10 mM) was added, and Ca ion concentration-dependent Cl response current was measured.
The calcium receptor-activating action of a peptide was evaluated by using the method described in Example 13. That is, oocytes injected with cRNA of the calcium receptor or sterilized water were prepared, and membrane potential-clamped at −70 mV by the double electrode potential clamp method.

Row | Molecule | calcium receptor-activating action (Ca ion concentration-dependent Cl response current)
6 | N[C@H](CS)C(=O)O [D-cysteine, reference compound] | definite calcium receptor-activating action

Same assay, conditions: L-amino acid added at 10 mM; oocytes clamped at -70 mV

Row | Molecule | calcium receptor-activating action (Ca ion concentration-dependent Cl response current)
7 | N[C@@H](CS)C(=O)O [cysteine, reference compound] | definite calcium receptor-activating action
8 | N[C@@H](Cc1c[nH]cn1)C(=O)O [histidine, reference compound] | definite calcium receptor-activating action
9 | N[C@@H](Cc1ccccc1)C(=O)O [phenylalanine, reference compound] | definite calcium receptor-activating action
10 | N[C@@H](Cc1c[nH]c2ccccc12)C(=O)O [tryptophan, reference compound] | definite calcium receptor-activating action
11 | N[C@@H](Cc1ccc(O)cc1)C(=O)O [tyrosine, reference compound] | definite calcium receptor-activating action

Same assay, conditions: peptide added at 50 μM

Row | Molecule | calcium receptor-activating action (Ca ion concentration-dependent Cl response current)
12 | N[C@@H](CCC(=O)N[C@@H](CSN=O)C(=O)NCC(=O)O)C(=O)O [γ-Glu-Cys(SNO)-Gly] | definite calcium receptor-activating action

Same assay, conditions: peptide added at 500 μM

Row | Molecule | calcium receptor-activating action (Ca ion concentration-dependent Cl response current)
13 | γ-Glu-Orn ([γGlu]-[Orn]) | definite calcium receptor-activating action

Same assay, conditions: peptide added at 1,000, 300, 100, 30, 10, 3, 1, 0.3 and 0.1 μM

Row | Molecule | Activity (lowest concentration at which current was detected)
14 | γ-Glu-Abu-Gly ([γGlu]-[Abu]-Gly) | 3 µM
15 | γ-Glu-Cys(S-Me)-Gly ([γGlu]-[Cys(S-Me)]-Gly) | 3 µM
16 | γ-Glu-Cys(S-allyl)-Gly ([γGlu]-[Cys(S-allyl)]-Gly) | 100 µM
17 | γ-Glu-Gly-Gly ([γGlu]-Gly-Gly) | 30 µM
18 | γ-Glu-Ser-Gly ([γGlu]-Ser-Gly) | 30 µM
19 | γ-Glu-Tau ([γGlu]-[Tau]) | 300 µM
20 | γ-Glu-Val-Arg ([γGlu]-Val-Arg) | 1,000 μM
21 | γ-Glu-Val-Asn ([γGlu]-Val-Asn) | 30 µM
22 | γ-Glu-Val-Asp | 1,000 μM
23 | γ-Glu-Val-Cys ([γGlu]-Val-Cys) | 10 µM
24 | γ-Glu-Val-Gln ([γGlu]-Val-Gln) | 10 µM
25 | γ-Glu-Val-Glu ([γGlu]-Val-Glu) | 1,000 μM
26 | γ-Glu-Val-His ([γGlu]-Val-His) | 100 µM
27 | γ-Glu-Val-Lys ([γGlu]-Val-Lys) | 1,000 μM
28 | γ-Glu-Val-Met ([γGlu]-Val-Met) | 1,000 μM
29 | γ-Glu-Val-Orn ([γGlu]-Val-[Orn]) | 100 µM
30 | γ-Glu-Val-Phe ([γGlu]-Val-Phe) | 30 µM
31 | γ-Glu-Val-Pro ([γGlu]-Val-Pro) | 30 µM
32 | γ-Glu-Val-Ser ([γGlu]-Val-Ser) | 30 µM
33 | γ-Glu-Val-Thr ([γGlu]-Val-Thr) | 1,000 μM
34 | γ-Glu-Val-Val ([γGlu]-Val-Val) | 1,000 μM
35 | γ-Glu-t-Leu ([γGlu]-[Tle]) | 100 µM
36 | γ-Glu-γ-Glu-Val ([γGlu]-[γGlu]-Val) | 1,000 μM

Each molecule was assayed on rat large intestine loop (assay: Fluid absorption in rat large intestine loop method (PGE2-stimulated)). Settings: injected into loop 30 minutes after PGE2 i.p.; measured after 1 hour.
Type: in vivo, rats
Method: The cecum and large intestine were extirpated from the abdomen of each of male SD (IGS) rats under pentobarbital anesthesia, and the site 5 cm away from the area just under the cecum was ligated to form a large intestine loop Immediately after the loop had been formed, PGE2 (4 μg/ml/kg, SIGMA) was intraperitoneally administered, and after 30 minutes, a medicament, which had been dissolved in 2 ml of Tyrode's solution (NaCl: 136.9 mM, KCl: 2.7 mM, CaCl2.2H2O: 1.8 mM, MgCl2.6H2O: 1.04 mM, NaH2PO4.2H2O: 0.04 mM, NaH2PO4.2H2O: 0.04 mM, glucose: 5.55 mM, NaHCO3: 11.9 mM), was injected into the prepared loop (the medicament solution was adjusted so that the pH would be 6.5 to 7.5). As a control, Tyrode's solution free of any medicament (vehicle) was administered. After 1 hour, the loop weight, the loop weight after solution removal, and the loop area were measured to calculate a solution weight per unit area remaining in the loop.
The remaining solution amount per unit area was calculated with the following equation:
Remaining solution amount per unit area(g/cm^2)=(Loop weight−Loop weight after solution removal)/Loop area.
The fluid absorption was evaluated by calculating an inhibitory rate from the following equation:
Inhibitory rate(%)=100−(Remaining solution amount per unit area under drug administration−Remaining solution amount per unit area in base(average))/(Remaining solution amount per unit area under vehicle administration(average)−Remaining solution amount per unit area in base(average))×100.
(Base=case where no stimulation is given (no treatment with PGE2))

Row | Molecule | fluid absorption (inhibitory rate from remaining solution amount per unit area)
37 | CC(C)(C)[C@H](NC(=O)CC[C@H](N)C(=O)O)C(=O)NCC(=O)O [γ-Glu-t-Leu-Gly] (γGlu-[Tle]-Gly-OH) | promoted fluid absorption
